“Also recorded” adds a separate entry of the source. Values belong to the molecule of their own block, whether it stands above or below them.
How the values were obtained:
[1] = target: human neuropeptide Y (NPY) receptor type 1 (hY1R), in stably transfected COS-7 cells (human) (UniProt P25929)
[2] = target: human neuropeptide Y receptor type 4 (hY4R), in stably transfected COS-7 cells (human) (UniProt P50391)
ERα [3] = test: Luciferase reporter gene assay, HEK293 cells expressing hY1R-eYFP, ERα-pEGFP and 3xERE-TATA-luciferase; assay type: cell-based; conditions: ERα and ERE-luciferase, stimulation 24 h, normalized to 4-OHT, at least three independent experiments, n. d. = could not be determined
Source text: B) ERα‐pEGFP and TATA‐luciferase.
Therefore, we tested HEK293 cells that transiently express hY1R, ERα, and an ERα activity‐dependent luciferase. ERα forms dimers and translocates into the nucleus upon activation, where it binds to the estrogen response element (ERE) upstream of the luciferase gene and induces luciferase expression.

ERα [4] = test: Luciferase reporter gene assay, control HEK293 cells expressing only ERα-pEGFP and TATA-luciferase (w/o hY1R); conditions: read-out: EC50 luciferase reporter gene assay, w/o hY1R; HEK293 cells expressing ERα and ERE-luciferase but not hY1R; stimulation 24 h; normalized to 4-OHT; n. d. = could not be determined
Procedure: Values were normalized to the native ligands (NPY for hY1R and hY2R, hPP for hY4R). Data points represent mean ± SEM from n ≥ 2 independent experiments with technical triplicates. Luciferase reporter gene assay in transiently transfected HEK293‐cells expressing hY1R‐eYFP. […] Data points represent mean ± SEM from n ≥ 3 independent experiments with technical triplicates. Calculated pEC50‐ and Emax‐values are shown as bar graphs.
HEK293‐cells were transiently transfected with 0.083 µg/well hY1R‐eYFP‐pVitro2, pEGFP‐c1‐ERα (kindly provided by Michael Mancini (Addgene plasmid #28230; http://n2t.net/addgene:28230; RRID:Addgene_28230))^[ [58] ^] and 3xERE‐Tata‐Luc (kindly provided by Donald McDonnell (Addgene plasmid #11354; http://n2t.net/addgene:11354; RRID:Addgene_11354))^[ [59] ^] parallel to cell seeding. For a control experiment without hY1R‐expression, pEGFP‐N1 together with pEGFP‐c1‐ERα and 3xERETata‐Luc was transfected instead. Lipofectamine2000 (Invitrogen) was used as a transfection reagent according to the manufacturer's protocol. […] Luciferase activity was detected with ONE Glo Luciferase Assay System (Promega) following the manufacturer's specifications. Each concentration was measured at least in technical triplicates and relative luminescence units (RLU) were obtained by normalization to free 4‐OH‐Tmx. Concentration response curves were calculated with Graph Pad Prism 9.

[5] = human blood plasma/DPBS (Biowest; 1:1, v/v); conditions: 37 °C, up to 72 h
[6] = target: human neuropeptide Y (NPY) receptor type 1 (hY1R), in stably transfected COS-7 cells (human) (UniProt P25929); remark: listed apart in the source
[7] = target: human neuropeptide Y receptor type 4 (hY4R), in stably transfected COS-7 cells (human) (UniProt P50391); remark: listed apart in the source
[8] = DMEM/Ham‘s w/o FBS, pH = 7.04
[9] = DMEM/Ham‘s with 15% FBS, pH = 8.01
[10] = luciferase reporter gene assay medium (DMEM/Ham‘s w/o phenolred, w/o FBS, pH = 7.41)
[11] = target: human neuropeptide Y receptor type 5 (hY5R), in stably transfected COS-7 cells (human) (UniProt Q15761)
Chain of human neuropeptide Y receptor type 5 (hY5R), in stably transfected COS-7 cells (human) (Q15761 whole entry): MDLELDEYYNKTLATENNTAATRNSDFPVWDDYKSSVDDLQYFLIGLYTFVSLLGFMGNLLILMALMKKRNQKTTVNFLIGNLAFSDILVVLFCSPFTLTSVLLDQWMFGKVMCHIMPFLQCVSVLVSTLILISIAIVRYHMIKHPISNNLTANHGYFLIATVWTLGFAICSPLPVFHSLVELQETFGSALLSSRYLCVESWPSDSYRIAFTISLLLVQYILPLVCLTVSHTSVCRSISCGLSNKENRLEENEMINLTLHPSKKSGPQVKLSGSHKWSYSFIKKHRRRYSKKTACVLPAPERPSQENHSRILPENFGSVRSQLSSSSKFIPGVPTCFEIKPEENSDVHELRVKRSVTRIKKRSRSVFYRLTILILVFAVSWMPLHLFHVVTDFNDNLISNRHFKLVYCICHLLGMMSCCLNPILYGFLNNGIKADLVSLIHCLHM

[12] = target: human neuropeptide Y receptor type 5 (hY5R), in stably transfected COS-7 cells (human) (UniProt Q15761); remark: listed apart in the source
hY4R‐eYFP (human) = hY4R‐eYFP (human) (UniProt P50391)
Chain of hY4R‐eYFP (human) (P50391 whole entry): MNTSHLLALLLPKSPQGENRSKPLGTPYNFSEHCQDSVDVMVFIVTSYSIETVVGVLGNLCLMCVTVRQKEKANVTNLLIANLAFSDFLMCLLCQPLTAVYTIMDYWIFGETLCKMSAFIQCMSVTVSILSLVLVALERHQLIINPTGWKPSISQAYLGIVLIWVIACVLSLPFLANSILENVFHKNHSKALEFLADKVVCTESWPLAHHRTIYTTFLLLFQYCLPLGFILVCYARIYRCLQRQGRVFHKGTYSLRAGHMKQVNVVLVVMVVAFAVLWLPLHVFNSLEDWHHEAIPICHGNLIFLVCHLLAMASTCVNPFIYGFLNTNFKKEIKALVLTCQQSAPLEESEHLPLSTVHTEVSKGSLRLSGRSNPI

Chain of human neuropeptide Y receptor type 4 (hY4R), in stably transfected COS-7 cells (human) (P50391 whole entry): as above
Chain of human neuropeptide Y (NPY) receptor type 1 (hY1R), in stably transfected COS-7 cells (human) (P25929 whole entry): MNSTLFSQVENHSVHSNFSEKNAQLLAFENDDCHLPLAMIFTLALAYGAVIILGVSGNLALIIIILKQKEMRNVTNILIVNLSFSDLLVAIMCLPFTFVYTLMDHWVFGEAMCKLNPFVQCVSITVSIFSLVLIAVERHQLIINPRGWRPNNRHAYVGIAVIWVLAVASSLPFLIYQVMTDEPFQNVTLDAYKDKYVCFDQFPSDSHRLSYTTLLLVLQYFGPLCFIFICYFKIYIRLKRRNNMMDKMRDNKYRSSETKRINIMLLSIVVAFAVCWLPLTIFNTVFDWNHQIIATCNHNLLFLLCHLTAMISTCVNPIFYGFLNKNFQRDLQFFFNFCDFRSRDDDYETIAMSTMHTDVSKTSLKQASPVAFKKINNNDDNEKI

calcium flux assay (receptor activation), EC50 [1]: 0.1 nM
calcium flux assay (receptor activation), EC50 [2]: 0.6 nM
Molecule: 4‐OHT conjugate 1 of [F^7,P^34]‐pNPY (w/o linker) (peptide)

Molecule: CC/C(=C(\c1ccc(O)cc1)c1ccc(OCCN(C)C)cc1)c1ccccc1 [4‐OHT, 4‐hydroxytamoxifen]
EC50 (ERα [3]): 9.4 nM
EC50 (ERα [4]): 5.8 nM

cleaved bond [5]: R35-Y36, minor
Molecule: YPSK(COCH2-4-OHT)PDFPGEDAPAEDLK(Tam)RYYSALRHYINLITRPRY-NH2

Molecule: YPSK(GFL-G(13C2,15N)- COCH2-4-OHT)PDFPGEDAPA(13C3,15N)EDLARYYSALRHYINL(13C6,15N)ITRPRY-NH2
cleaved bond [5]: Y1-P2; also recorded: P2-S3; also recorded: Y21-S22; also recorded: L24-R25; also recorded: L30-I31; also recorded: R35-Y36

calcium flux assay (receptor activation), EC50 [1]: 0.1 nM
calcium flux assay (receptor activation), EC50 [2]: 0.3 nM
IP1 accumulation assay (G-protein activation), EC50 [6]: 1.2 nM
IP1 accumulation assay (G-protein activation), EC50 [7]: 0.4 nM
Molecule: [F^7,P^34]‐pNPY (peptide)

fragment found (DPBS, pH = 7.4): peptide without 4-OHT
fragment found [8]: peptide without 4-OHT
fragment found [9]: peptide without 4-OHT
fragment found [10]: peptide without 4-OHT
Molecule: [K4(Diamine-4-OHT),F7,P34]-pNPY

calcium flux assay (receptor activation), EC50 [11]: 7.2 nM
IP1 accumulation assay (G-protein activation), EC50 [12]: 3.4 nM
Molecule: porcine neuropeptide Y (pNPY) (from UniProt P01304 10-45)

calcium flux assay (receptor activation), EC50 [2]: 0.1 nM
arrestin-3 recruitment to the receptor (NanoBRET), EC50 (hY4R‐eYFP (human)): 3.9 nM
IP1 accumulation assay (G-protein activation), EC50 [7]: 0.2 nM
Molecule: APLEPVYPGDNATPEQMAQYAADLRRYINMLTRPRY [human pancreatic polypeptide (hPP)]

— paper PMC12711160 (Chemmedchem, 2025)
